Target: Synechococcus sp. PCC 7002 Type 2 β‐McdB (Synechococcus sp. PCC 7002)
Assay: SEC-MALS

“Synechococcus sp. PCC 7002 Type 2 β‐McdB (natural protein)” showed a stoichiometry N of 2.

From publication PMC8359340
